Data on 2 molecules can be found in patent publication US20220073619A1 (IMCHECK THERAPEUTICS, published 2022).

Like-named read-outs stand apart in the source and are kept apart here.

Experiment [1] has as its target Human BTN3A, membrane displayed on cells (human PBMCs, Daudi cells, SKOV-3 cells) (human), O00481. The experiment is described as follows: cell-based or functional assay.
In experiment [2] the target is T1, Human BTN3A1 His-tagged antigen (Sino Biological Cat. No. 15973-H08H) (human, UniProt O00481 30-254).
T1 construct: Bought recombinant protein; also called recombinant human BTN3A1-His; not shown: His tag
Nature of the experiment: SPR Biacore T200, single cycle kinetics, BTN3A1-His captured on anti-His CM5 chip, F(ab′)2 as analyte, bivalent analyte model (ka 1), 25 C. How it is done: (§1) All single cycle kinetic experiments were run at 25° C. with HBS-P+ running buffer (pH 7.4) containing 0.1% BSA (GE Healthcare, Little Chalfont, UK).
(§2) Human BTN3A1 His-tagged antigen (Sino Biological, Beijing, China) was diluted in running buffer to a final concentration of 0.4 μg/mL. At the start of each cycle, BTN3A1-His was captured onto Fc2 of CM5 sensor chip pre-coupled using a His capture kit (GE Healthcare, Little Chalfont, UK) with standard amine chemistry at a flow rate of 10 μL/min. An immobilization level (RL) of ˜17 RU or 8 RU, the different theoretical values to obtain a RMax of ˜25 RU was used for the analytes Fab and F(ab′)₂ respectively. The surface was then allowed to stabilize. Single cycle kinetics data was obtained with the purified samples (Fab and F(ab′)₂)) at a flow rate of 40 μL/min to minimize any potential mass transfer effects. The signal from the reference channel Fc1 (no antigen capture) was subtracted from that of Fc2 to correct for differences in non-specific binding to the reference surface. […] The signal for BTN3A1-His blank runs (no analyte) were subtracted to correct for differences in surface stability. The association phase for the five injections of increasing concentrations was monitored for 240 seconds each time and a single dissociation phase was measured for 2000 seconds following the last injection of analyte. […]

For experiment [3], the target named is T1, Human BTN3A1 His-tagged antigen (Sino …). The experiment is described as follows: SPR Biacore T200, single cycle kinetics, BTN3A1-His captured on anti-His CM5 chip, F(ab′)2 as analyte, bivalent analyte model (kd 1), 25 C. How it is done: as §1, §2
The target is the same in experiment [4]. The experiment is described as follows: SPR Biacore T200, single cycle kinetics, BTN3A1-His captured on anti-His CM5 chip, F(ab′)2 as analyte, bivalent analyte model (kd 2), 25 C. How it is done:
as §1, §2

The target is the same in experiment [5]. The experiment is described as follows: SPR Biacore T200, single cycle kinetics, BTN3A1-His captured on anti-His CM5 chip, F(ab′)2 as analyte, bivalent analyte model (kd 1), 25 C. Here is the method:
(§3) Human BTN3A1 His-tagged antigen (Sino Biological, Beijing, China) was diluted in running buffer to a final concentration of 0.4 μg/mL. At the start of each cycle, human BTN3A1-His was captured onto Fc2 of CM5 sensor chip pre-coupled using a His capture kit (GE Healthcare, Little Chalfont, UK) with standard amine chemistry at a flow rate of 10 μL/min. An immobilization level (RL) of ˜34 RU, 16 RU or 11 RU, the different theoretical values to obtain a RMax of ˜50 RU was used for the analytes Fab, F(ab′)₂ and IgG respectively. The surface was then allowed to stabilize. Single cycle kinetic data was obtained with the purified samples (Fab, F(ab′)₂ and IgG) at a flow rate of 40 μL/min to minimize any potential mass transfer effects. The signal from the reference channel Fc1 (no antigen capture) was subtracted from that of Fc2 to correct for differences in non-specific binding to the reference surface. The signal for human BTN3A1-His blank runs (no analyte) were subtracted to correct for differences in surface stability. The association phase for the five injections of increasing concentrations was monitored for 240 seconds each time and a single dissociation phase was measured for 1400 seconds following the last injection of analyte. Regeneration of the chip surface was conducted using two injections of 10 mM glycine-HCL pH 1.5 followed by a stabilization period of 240 seconds.
This is another data set of the same source.

Experiment [6] has the same target. Nature of the experiment: SPR Biacore T200, single cycle kinetics, BTN3A1-His captured on anti-His CM5 chip, F(ab′)2 as analyte, bivalent analyte model (ka 1), 25 C. Here is the method: as §3
This is another data set of the same source.

Experiment [7] has the same target. Nature of the experiment: BLI OctetRed96, F(ab′)2 loaded on FAB2G (anti-human CH1) sensors, human BTN3A1 as analyte 1.87-60 nM, 1:1 model, 30 C. Here is the method:
All runs (including loading, equilibration, association/dipping of sensors into analyte, dissociation and regeneration) were performed in black 96-well plates (Greiner) at 30° C. with shaking 1000 rpm using an OctetRed96 (ForteBio). […] The association of antibody or fragments with various concentrations of human BTN3A1 (60, 30, 15, 7.5, 3.75 and 1.87 nM) was monitored for 300 s, and the dissociation was followed for typically 500 s in kinetic buffer. Fitting of the data and constant measurements were performed with the Octet Red system software (version 7.1) using the 1:1 model. A control with an irrelevant antibody was used in order to assess the absence of non-specific binding of the target protein.

Experiment [8] has the same target. Nature of the experiment: SPR Biacore T200, single cycle kinetics, BTN3A1-His captured on anti-His CM5 chip, F(ab′)2 as analyte, bivalent analyte model (kd 2), 25 C. Here is the method:
as §3
The source holds these as a separate data set.

T1 sequence (O00481 30-254 limits assumed): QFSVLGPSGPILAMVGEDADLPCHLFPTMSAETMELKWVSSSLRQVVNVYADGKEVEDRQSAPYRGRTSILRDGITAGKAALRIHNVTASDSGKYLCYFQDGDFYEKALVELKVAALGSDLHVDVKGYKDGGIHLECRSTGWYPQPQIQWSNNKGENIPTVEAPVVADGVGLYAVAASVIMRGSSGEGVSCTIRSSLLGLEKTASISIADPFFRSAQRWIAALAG

B1: Chimeric 103.2 F(ab′)2 fragment (other)
VH: QVQMQQSGAEVVRPGTSVKVSCKASGYAFTSYLIHWIKQRPGQGLEWIGVINPRSGDSHYNEKFKDRTTLTADQSSSTAYMQLSSLTSDDSAVYFCARSDYGAYWGQGTLVTVSS
VL: DIVLTQSPVTLSVTPGDSVSLSCRASQSISNNLHWYRQKSHESPRLLIKYASQSIFGIPSRFSGSGSGTEFTLSINSVETEDFGIYFCQQSNSWPHTFGTGTKLELK
In turn, B1 displayed a % CD107+ of Vγ9Vδ2 T cells, co-culture with Daudi cells, fragment at 10 µg/mL in experiment [1] of 40.8%. Moreover, the kon in experiment [2] is 213000 M⁻¹ s⁻¹. Further, in experiment [3], the koff was 0.00112 s⁻¹. Further, in experiment [4], the “kd 2” value was 34.1 s⁻¹.

B2: Humanized 103.2 (hu103.2) F(ab′)2 fragment (other)
VH: QVQMQQSGAEVKKPGASVKVSCKASGYAFTSYLIHWIKQRPGQGLEWIGVINPRSGDSHYNEKFKDRVTMTADQSISTAYMELSRLRSDDTAVYYCARSDYGAYWGQGTLVTVSS
VL: EIVLTQSPATLSVSPGERATLSCRASQSISNNLHWYQQKPGQAPRLLIKYASQSAFGIPARFSGSGSGTEFTLTISSLQSEDFAVYFCQQSNSWPHTFGQGTKLEIK
B2: the koff in experiment [5] turned out to be 0.00162 s⁻¹. In experiment [1], this molecule had a % CD25+ of Vγ9Vδ2 T cells within PBMCs, 67 nM, 5 days of 43.2%; a % CTV dilution of Vγ9Vδ2 T cells within PBMCs, 67 nM, 5 days of 42%; an EC50 (nM) in Vγ9Vδ2 T cell degranulation assay (CD107) against Daudi of 0.0005 nM; an EC50 (nM) in Vγ9Vδ2 T cell degranulation assay (CD107) against SKOV-3 of 0.0005 nM. In experiment [6], this molecule gave a kon of 689000 M⁻¹ s⁻¹. In experiment [7], binding was put at a Kd of 1230 pM, the koff is 0.000243 s⁻¹ and the kon was found to be 198000 M⁻¹ s⁻¹. In experiment [8], the “kd 2” value came to 35.9 s⁻¹.
